The values below come from patent US20230406919A1 (Johns Hopkins, published 2023).

In test [1] the target is T1, Calmodulin (CaM) (mammalian, UniProt P0DP23 1-149).
T1 construct: also called free CaM; CaM alone
As to the kind of experiment: periplasmic-extract ELISA, 1:100 extract on 0.1 ug coated Ca2+CaM or apoCaM, anti-HA detection; positive above absorbance 2. On the technique in general: An ELISA detects its analyte on a solid surface through an enzyme-linked reagent.

The target in test [2] is T1, Calmodulin (CaM). As to the kind of experiment: co-expression in E. coli, GST pull-down and anion exchange chromatography.

B1: Nb26 (VHH)
VHH: QVQLQESGGGSVQAGGSLRLSCVASGRTFSSYAMAWFRQVPGKEREFVGRISRSGGSTMYADSVKGRFDISRDNAKNTVFLQMSSLKPEDTAVYYCAAKAAVILTGIPDYWGQGTQVTVSS
notes: pHEN4 clone, HA-tagged, periplasmic extract; also called family 4
B1: the binding result in test [1] is on record as “binds”.

B2: CTNav1.9T (other)
chain: ENFNTATEESEDPLGEDDFDIFYEVWEKFDPEATQFIKYSALSDFADALPEPLRVAKPNKYQFLVMDLPMVSEDRLHCMDILFAFTARVLGGSDGLDSMKAMMEEKFMEANPLKKLYEPIVTTTKRKEEERGAAIIQKAFRKYMMKVTKGDQGDQNDLENGPHS
notes: range 1605-1768; GST tag cleaved
B2: the binding result in test [2] is recorded as “no binding”.

B3: CTNav1.9FL (other)
chain: ENFNTATEESEDPLGEDDFDIFYEVWEKFDPEATQFIKYSALSDFADALPEPLRVAKPNKYQFLVMDLPMVSEDRLHCMDILFAFTARVLGGSDGLDSMKAMMEEKFMEANPLKKLYEPIVTTTKRKEEERGAAIIQKAFRKYMMKVTKGDQGDQNDLENGPHSPLQTLCNGDLSSFGVAKGKVHCD
notes: range 1605-1791; GST tag cleaved
Regarding B3, the binding result in test [2] is reported as “no binding”.
